Test results taken from US20240262919A1 (SHANGHAITECH UNIVERSITY, published 2024).

T1: mouse IL-18Rβ (mouse, UniProt Q9Z2B1 20-356, limits assumed)
T1 construct: also called Mouse receptor; mouse ortholog
T1 sequence (looked up): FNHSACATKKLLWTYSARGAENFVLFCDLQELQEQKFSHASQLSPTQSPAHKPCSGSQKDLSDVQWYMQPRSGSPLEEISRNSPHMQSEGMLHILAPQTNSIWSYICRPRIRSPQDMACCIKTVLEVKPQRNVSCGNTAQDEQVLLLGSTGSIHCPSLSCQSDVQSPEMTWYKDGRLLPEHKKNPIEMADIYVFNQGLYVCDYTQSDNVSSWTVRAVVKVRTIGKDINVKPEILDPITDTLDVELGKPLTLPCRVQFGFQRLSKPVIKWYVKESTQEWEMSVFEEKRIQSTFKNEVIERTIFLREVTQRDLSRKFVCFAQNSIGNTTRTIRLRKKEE

T2: human IL-18Rβ ECD Fc fusion (118-AP-100, R&D Systems) (human, UniProt O95256 20-356)
T2 construct: Bought protein; also called hIL-18Rβ; recombinant human IL-18Rb; not shown: Fc tag of the bought fusion protein, not described
T2 sequence: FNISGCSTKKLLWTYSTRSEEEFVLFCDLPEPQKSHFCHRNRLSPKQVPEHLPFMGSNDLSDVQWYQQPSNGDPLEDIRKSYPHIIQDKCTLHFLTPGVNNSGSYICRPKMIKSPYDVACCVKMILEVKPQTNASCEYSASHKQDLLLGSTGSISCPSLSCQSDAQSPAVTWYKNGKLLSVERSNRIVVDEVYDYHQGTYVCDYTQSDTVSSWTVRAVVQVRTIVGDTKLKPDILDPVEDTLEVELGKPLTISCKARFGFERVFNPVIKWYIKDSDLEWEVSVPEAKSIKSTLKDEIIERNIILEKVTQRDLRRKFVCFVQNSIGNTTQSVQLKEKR

T3: human IL-18Rα ECD Fc fusion (816-LR-100; R&D Systems) (human, UniProt Q13478 22-329)
T3 construct: extracellular domain; Bought protein; also called Human receptor; not shown: Fc tag of the bought fusion protein, not described
T3 sequence (looked up): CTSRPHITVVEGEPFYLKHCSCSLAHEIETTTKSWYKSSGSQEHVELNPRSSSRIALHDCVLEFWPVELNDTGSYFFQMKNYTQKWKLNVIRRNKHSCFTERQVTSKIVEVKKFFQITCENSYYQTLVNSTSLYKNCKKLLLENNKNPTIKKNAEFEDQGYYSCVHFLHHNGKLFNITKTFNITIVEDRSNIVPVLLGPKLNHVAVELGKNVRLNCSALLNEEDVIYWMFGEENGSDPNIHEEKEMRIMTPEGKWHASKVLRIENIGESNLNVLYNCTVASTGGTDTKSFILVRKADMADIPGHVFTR

T4: Rhesus IL-18Rβ (rhesus, UniProt F7HHC1 20-356)
T4 construct: also called rhesus IL-18 receptor beta; monkey IL-18Rβ
T4 sequence: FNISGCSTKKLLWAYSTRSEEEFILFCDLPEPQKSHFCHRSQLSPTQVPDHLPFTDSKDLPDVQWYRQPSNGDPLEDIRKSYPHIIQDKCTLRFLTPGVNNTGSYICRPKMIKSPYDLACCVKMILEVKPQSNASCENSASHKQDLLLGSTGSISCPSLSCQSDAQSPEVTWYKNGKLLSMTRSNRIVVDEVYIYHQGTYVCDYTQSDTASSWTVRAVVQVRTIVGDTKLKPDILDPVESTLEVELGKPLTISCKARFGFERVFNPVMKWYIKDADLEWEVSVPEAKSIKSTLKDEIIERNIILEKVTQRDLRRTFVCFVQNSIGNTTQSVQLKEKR


Assays:
mouse IL-18Rβ = molecular target: T1, mouse IL-18Rβ; test: SPR (Table 5 title), Fab on mouse receptor
[1] = molecular target: T2, human IL-18Rβ ECD Fc fusion …; test: biolayer interferometry (BLI) after legend paragraph 36; drawn table, head kd (10^-4 s^-1), Human receptor
[2] = molecular target: T2, human IL-18Rβ ECD Fc fusion …; test: competitive ELISA: signal on immobilised receptor after incubation with a two-fold dilution series of soluble hIL-18Rβ; the concentration axis is the soluble receptor; y axis printed 'Inhibition (%)'
[3] = molecular target: T2, human IL-18Rβ ECD Fc fusion …; test: competitive binding ELISA with soluble receptor (drawn table, column IC50 (nM))
[4] = molecular target: T2, human IL-18Rβ ECD Fc fusion …; test: SPR (Table 5 title), Fab on human receptor
[5] = molecular target: T2, human IL-18Rβ ECD Fc fusion …; test: biolayer interferometry (BLI) after legend paragraph 36; drawn table, head ka (10^4 M^-1 s^-1), Human receptor
[6] = molecular target: T2, human IL-18Rβ ECD Fc fusion …; test: biolayer interferometry (BLI) after legend paragraph 36; drawn table, head KD (nM), Human receptor
[7] = molecular target: T2, human IL-18Rβ ECD Fc fusion …; test: direct binding ELISA on immobilised human IL-18Rβ, OD 450 against concentration; panel title and axes say IgG, the key and legend paragraph 36 say Fab
[8] = molecular target: T2, human IL-18Rβ ECD Fc fusion …; test: multipoint direct binding ELISA (drawn table, column EC50 (nM))
[9] = molecular target: T3, human IL-18Rα ECD Fc fusion …; test: SPR, Fab on human receptor
[10] = molecular target: T3, human IL-18Rα ECD Fc fusion …; test: competitive ELISA with a dilution series of soluble receptor; the axis is printed 'Soluble hIL18Rβ concentration (nM)', but legend paragraph 36 and the table of panel C give IL-18Rα for this trace; the competitor is the immobilised receptor; y axis printed 'Inhibition (%)'
[11] = molecular target: T3, human IL-18Rα ECD Fc fusion …; test: multipoint direct binding ELISA (drawn table, column EC50 (nM)); the cell equals that of row A3
[12] = molecular target: T3, human IL-18Rα ECD Fc fusion …; test: competitive binding ELISA with soluble receptor (drawn table, column IC50 (nM)); the cell equals that of row A3
[13] = molecular target: T3, human IL-18Rα ECD Fc fusion …; test: direct binding ELISA on immobilised human IL-18Rα (target after legend paragraph 36 and the table of panel C), OD 450 against concentration; panel title and axes say IgG, the key and legend say Fab
Rhesus IL-18Rβ [14] = molecular target: T4, Rhesus IL-18Rβ; test: multipoint direct binding ELISA
Rhesus IL-18Rβ [15] = molecular target: T4, Rhesus IL-18Rβ; test: SPR

Binder	Kd (mouse IL-18Rβ) [nM]	koff (mouse IL-18Rβ) [s⁻¹]	kon (mouse IL-18Rβ) [M⁻¹ s⁻¹]	koff [1] [s⁻¹]	IC50 (read off the curve) [2] [nM]	IC50 [3] [nM]	Kd [4] [nM]	koff [4] [s⁻¹]	kon [4] [M⁻¹ s⁻¹]	kon [5] [M⁻¹ s⁻¹]	Kd [6] [nM]	EC50 (read off the curve) [7] [nM]	EC50 [8] [nM]	other results
Fab 3131 (Fab, also called F3131) heavy: EVQLVESGGGLVQPGGSLRLSCAASGFNLYYSSMHWVRQAPGKGLEWVASIYSSYGYTYYADSVKGRFTISADTSKNTAYLQMNSLRAEDTAVYYCARSSFSHGYGWYGLDYWGQGTLVTVSSASTKGPSVFPLAPSSKSTSGGTAALGCLVKDYFPEPVTVSWNSGALTSGVHTFPAVLQSSGLYSLSSVVTVPSSSLGTQTYICNVNHKPSNTKVDKKVEPKSCDKTHT light: DIQMTQSPSSLSASVGDRVTITCRASQSVSSAVAWYQQKPGKAPKLLIYSASSLYSGVPSRFSGSRSGTDFTLTISSLQPEDFATYYCQQYGYHYAGLITFGQGTKVEIKRTVAAPSVFIFPPSDSQLKSGTASVVCLLNNFYPREAKVQWKVDNALQSGNSQESVTEQDSKDSTYSLSSTLTLSKADYEKHKVYACEVTHQGLSSPVTKSFNRGECGGSDYKDDDDK	5.2	0.00062	120000	0.0013	1 to 2	82	6.2	0.00127	210000	210000	6.1	~0.3	16	
Fab 3132 (Fab, also called F3132) heavy: EVQLVESGGGLVQPGGSLRLSCAASGFNISYYYIHWVRQAPGKGLEWVASIYSYSGYTSYADSVKGRFTISADTSKNTAYLQMNSLRAEDTAVYYCARASAMDYWGQGTLVTVSSASTKGPSVFPLAPSSKSTSGGTAALGCLVKDYFPEPVTVSWNSGALTSGVHTFPAVLQSSGLYSLSSVVTVPSSSLGTQTYICNVNHKPSNTKVDKKVEPKSCDKTHT light: DIQMTQSPSSLSASVGDRVTITCRASQSVSSAVAWYQQKPGKAPKLLIYSASSLYSGVPSRFSGSRSGTDFTLTISSLQPEDFATYYCQQHWWASVPPFTFGQGTKVEIKRTVAAPSVFIFPPSDSQLKSGTASVVCLLNNFYPREAKVQWKVDNALQSGNSQESVTEQDSKDSTYSLSSTLTLSKADYEKHKVYACEVTHQGLSSPVTKSFNRGECGGSDYKDDDDK				0.0013	~9	74				10000	133	~0.5	33	
Fab 3144 (Fab, also called F3144) heavy: EVQLVESGGGLVQPGGSLRLSCAASGFNLSYYSIHWVRQAPGKGLEWVASIYSYSGYTSYADSVKGRFTISADTSKNTAYLQMNSLRAEDTAVYYCARSSAMDYWGQGTLVTVSSASTKGPSVFPLAPSSKSTSGGTAALGCLVKDYFPEPVTVSWNSGALTSGVHTFPAVLQSSGLYSLSSVVTVPSSSLGTQTYICNVNHKPSNTKVDKKVEPKSCDKTHT light: DIQMTQSPSSLSASVGDRVTITCRASQSVSSAVAWYQQKPGKAPKLLIYSASSLYSGVPSRFSGSRSGTDFTLTISSLQPEDFATYYCQQHWWGYPLITFGQGTKVEIKRTVAAPSVFIFPPSDSQLKSGTASVVCLLNNFYPREAKVQWKVDNALQSGNSQESVTEQDSKDSTYSLSSTLTLSKADYEKHKVYACEVTHQGLSSPVTKSFNRGECGGSDYKDDDDK	12.9	0.0012	93000	0.0011	~2	19	1.8	0.00058	320000	170000	6.4	~0.4	16	
Fab 12 (Fab, Anti-IL-18Rα Fab; also called F12) heavy: EVQLVESGGGLVQPGGSLRLSCAASGFNISSSSIHWVRQAPGKGLEWVASISPSYSSTYYADSVKGRFTISADTSKNTAYLQMNSLRAEDTAVYYCARGAFDYWGQGTLVTVSSASTKGPSVFPLAPSSKSTSGGTAALGCLVKDYFPEPVTVSWNSGALTSGVHTFPAVLQSSGLYSLSSVVTVPSSSLGTQTYICNVNHKPSNTKVDKKVEPKSCDKTHT light: DIQMTQSPSSLSASVGDRVTITCRASQSVSSAVAWYQQKPGKAPKLLIYSASSLYSGVPSRFSGSRSGTDFTLTISSLQPEDFATYYCQQYWHPFTFGQGTKVEIKRTVAAPSVFIFPPSDSQLKSGTASVVCLLNNFYPREAKVQWKVDNALQSGNSQESVTEQDSKDSTYSLSSTLTLSKADYEKHKVYACEVTHQGLSSPVTKSFNRGECGGSDYKDDDDK														Kd [9]: 1.9 nM; koff [9]: 0.0002 s⁻¹; kon [9]: 110000 M⁻¹ s⁻¹; IC50 (read off the curve) [10]: ~20 nM; EC50 [11]: 86 nM; IC50 [12]: 105 nM; EC50 (read off the curve) [13]: ~0.8 nM
IgG 3131 (antibody, V domains shown, IgG made by sub-cloning the Fab CDR regions into IgG expression constructs; VL-CL with FLAG tag; also called I3131) VH: EVQLVESGGGLVQPGGSLRLSCAASGFNLYYSSMHWVRQAPGKGLEWVASIYSSYGYTYYADSVKGRFTISADTSKNTAYLQMNSLRAEDTAVYYCARSSFSHGYGWYGLDYWGQGTLVTVSS VL: DIQMTQSPSSLSASVGDRVTITCRASQSVSSAVAWYQQKPGKAPKLLIYSASSLYSGVPSRFSGSRSGTDFTLTISSLQPEDFATYYCQQYGYHYAGLITFGQGTKVEIKR														EC50 (Rhesus IL-18Rβ [14]): 11.5 nM; Kd (Rhesus IL-18Rβ [15]): 3.9 nM; koff (Rhesus IL-18Rβ [15]): 0.00015 s⁻¹; kon (Rhesus IL-18Rβ [15]): 38000 M⁻¹ s⁻¹
